Data on three molecules can be found in paper PMC11729874, “How J-chain ensures the assembly of immunoglobulin IgM pentamers” (The EMBO Journal, 2024).

The target in data set [1] is murine Cμ4tp domain, recombinant (mouse). Kind of data set: SEC; analytical SE-HPLC, Superdex 200 Increase 10/300, PBS pH 7.4, 25 °C; 1 mg/mL Cµ4tp (DTT removed) and/or 0.5 mg/mL J chain (if not stated otherwise) incubated 24 h at room temperature. For orientation: In gel filtration, larger molecules generally elute earlier.
Data set [2] deals with the molecule itself. The experiment in a line: cross-linking; disulfide mapping of recombinant JC by cross-linking MS: denatured, alkylated with iodoacetamide, trypsin and Asp-N, HPLC-MS/MS, Kojak with disulfide as crosslinker.
Data set [3] deals with murine Cμ4tp domain, recombinant (mouse). Kind of data set: SEC; analytical SE-HPLC, Superdex 200 Increase 10/300, PBS pH 7.4, 25 °C; 1 mg/mL Cµ4tp (DTT removed) and/or 0.5 mg/mL J chain (if not stated otherwise) incubated 24 h at room temperature. The source holds these as a separate data set.
Data set [4] deals with the molecule itself. The experiment in a line: nonreducing SDS-PAGE and western blot of covalent assemblies; HEK293/HEK293T co-transfected with H-Cµ234tp and JC variants, 48 h; RIPA lysates with 10 mM NEM and TCA-precipitated supernatants; Halo ligands, anti-JC, anti-µ. A general note: In western blotting, separated proteins are transferred to a membrane and probed.

On to “murine Cμ4tp domain, recombinant (domain or fragment)”, for which, in data set [1], the stoichiometry N is 2 chains and the stoichiometry N (Cµ4tp2 dimers) amounted to 6.

B1: murine Joining Chain wild type, recombinant (natural protein, mouse)
chain: MGDDEATILADNKCMCTRVTSRIIPSTEDPNEDIVERNIRIVVPLNNRENISDPTSPLRRNFVYHLSDVCKKCDPVEVELEDQVVTATQSNICNEDDGVPETCYMYDRNKCYTTMVPLRYHGETKMVQAALTPDSCYPD
notes: methionine added at position 1; murine joining chain (J chain), G22-D159 of the precursor; Heterogeneous native and non-native disulfides; largely unstructured by CD; also called JC; J chain
As to B1, in data set [2], the binding result is “binds”. The stoichiometry N (JC per (Cµ4tp2)5) in data set [3] was found to be 1.

B2: Halo-tagged truncated µs variant lacking the variable and first constant domains (H-Cµ234tp) (domain or fragment, UniProt P01872 106-454, looked up)
chain: VAEMNPNVNVFVPPRDGFSGPAPRKSKLICEATNFTPKPITVSWLKDGKLVESGFTTDPVTIENKGSTPQTYKVISTLTISEIDWLNLNVYTCRVDHRGLTFLKNVSSTCAASPSTDILTFTIPPSFADIFLSKSANLTCLVSNLATYETLNISWASQSGEPLETKIKIMESHPNGTFSAKGVASVCVEDWNNRKEFVCTVTHRDLPSPQKKFISKPNEVHKHPPAVYLLPPAREQLNLRESATVTCLVKGFSPADISVQWLQRGQLLPQEKYVTSAPMPEPGAPGFYFTHSILTVTEEEWNSGETYTCVVGHEALPHLVTERTVDKSTGKPTLYNVSLIMSDTGGTCY
notes: secretory Ig µ heavy chain without the variable and first constant domains: Cµ2, Cµ3, Cµ4 and the tailpiece; the gene carries a signal peptide; Detected with anti-mouse IgM (µ chain); also called Halo-Cµ234tp; H-Cµ234tp WT; source: HEK293/HEK293T or HeLa-ERp44KO, transfected, in lysate or supernatant
Regarding B2, in data set [4], the “stoichiometry N” value was 6 H-Cµ234tp2 subunits (dimers).

As usually defined, the stoichiometry N is the number of molecules, sites or subunits per partner or assembly.
